Target: High affinity thrombin receptor of NIL hamster fibroblasts (Syrian hamster (endogenous in NIL cells))
Assay: radioligand binding

specific 125I-thrombin binding (cpm/ug protein): 439
Substance: Human alpha-thrombin (from UniProt P00734 364-622; P00734 364-622) (enzyme)

From article PMC2114734
